# Results published in article PMC11272584 (Nature Metabolism, 2024).
# Residue numbers refer to the chain shown, from its start. Numbers in names are those of the source.
# T1: GIPR V99I (Homo sapiens, UniProt P48546, V99I)
# T1 construct: host or cells: HEK293
# T1 sequence (P48546 22-466 V99I): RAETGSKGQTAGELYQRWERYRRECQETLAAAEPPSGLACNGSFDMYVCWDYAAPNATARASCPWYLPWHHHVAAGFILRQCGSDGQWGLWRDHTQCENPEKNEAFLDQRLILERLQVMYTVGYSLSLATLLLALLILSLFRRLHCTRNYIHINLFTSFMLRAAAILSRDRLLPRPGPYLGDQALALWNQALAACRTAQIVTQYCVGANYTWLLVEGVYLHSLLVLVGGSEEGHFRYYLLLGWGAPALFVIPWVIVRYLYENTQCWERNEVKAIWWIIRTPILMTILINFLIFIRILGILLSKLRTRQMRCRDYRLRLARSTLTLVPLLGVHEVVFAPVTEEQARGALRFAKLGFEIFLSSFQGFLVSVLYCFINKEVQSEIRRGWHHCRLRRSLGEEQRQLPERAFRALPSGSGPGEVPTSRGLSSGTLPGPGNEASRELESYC
# T2: GIPR T116R (Homo sapiens, UniProt P48546, T116R)
# T2 construct: host or cells: HEK293
# T2 sequence (P48546 22-466 T116R): T1 sequence (P48546 22-466 V99I) with I78V, T95R
# T3: GIPR R164Q (Homo sapiens, UniProt P48546, R164Q)
# T3 construct: host or cells: HEK293
# T3 sequence (P48546 22-466 R164Q): T1 sequence (P48546 22-466 V99I) with I78V, R143Q
# T4: GIPR M67R (Homo sapiens, UniProt P48546, M67R)
# T4 construct: host or cells: HEK293
# T4 sequence (P48546 22-466 M67R): T1 sequence (P48546 22-466 V99I) with M46R, I78V
# T5: GIPR Y73H (Homo sapiens, UniProt P48546, Y73H)
# T5 construct: host or cells: HEK293
# T5 sequence (P48546 22-466 Y73H): T1 sequence (P48546 22-466 V99I) with Y52H, I78V
# T6: GIPR A150T (Homo sapiens, UniProt P48546, A150T)
# T6 construct: host or cells: HEK293
# T6 sequence (P48546 22-466 A150T): T1 sequence (P48546 22-466 V99I) with I78V, A129T
# T7: GIPR G144S (Homo sapiens, UniProt P48546, G144S)
# T7 construct: host or cells: HEK293
# T7 sequence (P48546 22-466 G144S): T1 sequence (P48546 22-466 V99I) with I78V, G123S
# T8: GIPR R101H (Homo sapiens, UniProt P48546, R101H)
# T8 construct: host or cells: HEK293
# T8 sequence (P48546 22-466 R101H): T1 sequence (P48546 22-466 V99I) with I78V, R80H
# B1: V99I (protein)
# chain: T1 sequence (P48546 22-466 V99I)
# B2: T116R (protein)
# chain: T1 sequence (P48546 22-466 V99I) with I78V, T95R
# B3: M67R (protein)
# chain: T1 sequence (P48546 22-466 V99I) with M46R, I78V
# B4: G144S (protein)
# chain: T1 sequence (P48546 22-466 V99I) with I78V, G123S
# B5: R101H (protein)
# chain: T1 sequence (P48546 22-466 V99I) with I78V, R80H
# B6: A150T (protein)
# chain: T1 sequence (P48546 22-466 V99I) with I78V, A129T
# B7: R164Q (protein)
# chain: T1 sequence (P48546 22-466 V99I) with I78V, R143Q
# B8: Y73H (protein)
# chain: T1 sequence (P48546 22-466 V99I) with Y52H, I78V
# Target: T1, GIPR V99I
# Experiment: cAMP accumulation
# Assay type: cell-based
# Conditions: not given
# Protocol: HEK293 (CRL-1573, American Type Culture Collection) and β-arrestin 1/2 knockout cells, generated from HEK293A[48], were used for cAMP measurement, homologues competition binding and β-arrestin 2 recruitment. For the internalization assay, endosomal signalling and basal receptor localization experiments, HEK293A (R70507, Thermo Fisher) cells were used. Both cell lines were cultured at 5% CO2 at 37 °C in Roswell Park Memorial Institute GlutaMAX-I supplemented with 10% fetal bovine serum, 180 units ml^−1 penicillin, and 45 g ml^−1 streptomycin. For the cAMP and binding experiments, cells were transfected with the calcium phosphate precipitation method[49]. The polyethyleneimine (PEI) transfection method was used for the β-arrestin 2 recruitment assays[50], endosomal signalling and basal receptor localization assays, while the lipofectamine transfection method was used for the internalization assay.
# cAMP production was measured with the DiscoverX Hithunter cAMP assay according to the manufacturer’s protocol (DiscoverX). […] On the day of the assay, the cells were washed twice with HEPES-buffered saline (HBS) and incubated with HBS and 1 mM 3-isobutyl-1-methylxanthine for 30 min at 37 °C. […] After a 3-h incubation on a shaking table in the dark, the cAMP accumulation was measured based on luminescence with a Perkin Elmer EnVision 2104 Multilabel Microplate Reader. […]
row,Molecule,Efficacy at 100pmol (cAMP)
1,B1,0.04155

# Target: T2, GIPR T116R
# Experiment: cAMP accumulation
# Assay type: cell-based
# Conditions: not given
row,Molecule,Efficacy at 100pmol (cAMP)
1,B2,0.03526

# Test system: GIPR variants (groups)
# Experiment: cAMP accumulation
# Assay type: cell-based, human
# Conditions: cAMP part of the in vitro group
row,Molecule,In vitro groups (cAMP)
1,B3,LoF_camp
2,B4,LoF_camp
3,B2,LoF_camp
4,B1,LoF_camp
5,B5,LoF_camp
6,B6,LoF_camp
7,B7,WT-like_camp
8,B8,LoF_camp

# Same assay, conditions: cAMP production compared with WT
row,Molecule,percentage_camp
1,B3,<50% cAMP
2,B4,<50% cAMP
3,B2,<50% cAMP
4,B1,<50% cAMP
5,B5,<50% cAMP
6,B6,<50% cAMP
7,B7,>50% cAMP
8,B8,<50% cAMP

# Same assay, conditions: in vitro cAMP production per GIPR variant
row,Molecule,"Beta, cAMP"
1,B3,0.1344
2,B4,0.204
3,B2,0
4,B1,0.04155
5,B5,0
6,B6,0.1631
7,B7,1.15
8,B8,0.06277

# Target: T3, GIPR R164Q
# Experiment: cAMP accumulation
# Assay type: cell-based
# Conditions: not given
row,Molecule,Efficacy at 100pmol (cAMP)
1,B7,1.15

# Target: T4, GIPR M67R
# Experiment: cAMP accumulation
# Assay type: cell-based
# Conditions: not given
row,Molecule,Efficacy at 100pmol (cAMP)
1,B3,0.1344

# Target: T5, GIPR Y73H
# Experiment: cAMP accumulation
# Assay type: cell-based
# Conditions: not given
row,Molecule,Efficacy at 100pmol (cAMP)
1,B8,0.06277

# Test system: GIPR variants (groups)
# Experiment: β-arrestin 2 recruitment (BRET);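 further: BRET readout of β-arrestin 2 recruitment in transiently transfected HEK293 cells expressing WT GIPR or a GIPR variant plus GPCR kinase 2, Rluc8 donor and citrine acceptor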
# Conditions: arr part of the in vitro group
# Protocol: Both cell lines were cultured at 5% CO2 at 37 °C in Roswell Park Memorial Institute GlutaMAX-I supplemented with 10% fetal bovine serum, 180 units ml^−1 penicillin, and 45 g ml^−1 streptomycin. […] The polyethyleneimine (PEI) transfection method was used for the β-arrestin 2 recruitment assays[50], endosomal signalling and basal receptor localization assays, while the lipofectamine transfection method was used for the internalization assay.
# Measurement of β-arrestin 2 recruitment was performed with a BRET assay. Two days before the assay, the HEK293 cells were transiently transfected with either WT GIPR or the GIPR variants together with the donor Rluc8-Arrestin-3-Sp1, the acceptor mem-linker-citrine-SH3 and the GPCR kinase 2 to facilitate β-arrestin 2 recruitment. On assay day, the cells were washed with PBS and resuspended in PBS supplemented with 5 mmol l^−1 glucose. Subsequently, 85 µl of the cell suspension was transferred to a white 96-well plate and 10 µl of 50 µM coelenterazine-h was added.
row,Molecule,In vitro groups (β-arrestin)
1,B3,WT-like_arr
2,B4,LoF_arr
3,B2,WT-like_arr
4,B1,WT-like_arr
5,B5,LoF_arr
6,B6,WT-like_arr
7,B7,LoF_arr
8,B8,WT-like_arr

# Same assay, conditions: in vitro β-arrestin recruitment per GIPR variant
row,Molecule,"Beta, Barr"
1,B3,1.452
2,B4,0
3,B2,0.6218
4,B1,0.6225
5,B5,0
6,B6,0.8173
7,B7,0.3053
8,B8,1.323

# Target: T6, GIPR A150T
# Experiment: cAMP accumulation
# Assay type: cell-based
# Conditions: not given
row,Molecule,Efficacy at 100pmol (cAMP)
1,B6,0.1631

# Target: T7, GIPR G144S
# Experiment: cAMP accumulation
# Assay type: cell-based
# Conditions: not given
row,Molecule,Efficacy at 100pmol (cAMP)
1,B4,0.204

# Target: T8, GIPR R101H
# Experiment: cAMP accumulation
# Assay type: cell-based
# Conditions: not given
row,Molecule,Efficacy at 100pmol (cAMP)
1,B5,0
